6 molecules from patent US20250101133A1 (CENTRE NATIONAL DE LA RECHERCHE SCIENTIFIQUE, published 2025) can be followed below.

Test [1] addresses T1, recombinant human NEDP1 protein (human, UniProt Q96LD8 1-212).
T1 construct: also called deNEDDylating enzyme NEDP1; NEDP1 enzyme
T1 sequence (looked up): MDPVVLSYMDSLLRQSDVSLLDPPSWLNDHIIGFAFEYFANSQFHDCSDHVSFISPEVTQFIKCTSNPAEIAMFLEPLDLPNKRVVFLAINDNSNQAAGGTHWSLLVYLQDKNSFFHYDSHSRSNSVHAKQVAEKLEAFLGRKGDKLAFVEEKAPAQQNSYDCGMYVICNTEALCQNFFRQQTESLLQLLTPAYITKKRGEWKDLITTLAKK
The test is described as follows: SPR and ELISA. As to the method: (§1) FIGS. 1A-1C: FIG. 1A Table showing the different Nanobodies isolated and their binding specificity towards the immunogen human NEDP1 and ULP-3, the C. elegans homologue of NEDP1 (−poor/no binding, + indicates binding affinity/specificity). FIG. 1B ELISA test, showing the binding of indicated Nanobodies (300 ng) against increasing amounts of coated recombinant human NEDP1. FIG. 1C Table showing the SPR (Surface Plasmon Resonance) analysis and binding affinities for indicated Nanobodies against human NEDP1.
(§2) Nbs affinities for NEDP1 were determined on a Biacore 2000 apparatus (Biacore AB, Uppsala, Sweden). Nanobodies (355 nM) were immobilized on anti-His6 antibody covalently immobilized on a carboxymethyl dextran sensorchip (CM5 Biacore AB) using the amine coupling method according to the manufacturer's instructions. The immobilization level was 500 resonance units (RU). Different concentrations of NEDP1 ranging from 0.75 to 200 nM in HEPES-buffered saline (0.01 M HEPES, pH 7.4, 0.15 M NaCl, 3 mM EDTA, 0.005% surfactant P20) were injected and exposed to the Nb. All sensorgrams were fitted by subtracting the signal from the reference flow cell and were treated using BIA evaluation version 3.2 software (Biacore AB).
In general terms: An ELISA detects its analyte on a solid surface through an enzyme-linked reagent.

Test [2] addresses T2, endogenous NEDP1 in U2OS cell extracts (human, UniProt Q96LD8 1-212).
T2 construct: Untagged native protein, co-immunoprecipitated from cell lysate
T2 sequence (looked up): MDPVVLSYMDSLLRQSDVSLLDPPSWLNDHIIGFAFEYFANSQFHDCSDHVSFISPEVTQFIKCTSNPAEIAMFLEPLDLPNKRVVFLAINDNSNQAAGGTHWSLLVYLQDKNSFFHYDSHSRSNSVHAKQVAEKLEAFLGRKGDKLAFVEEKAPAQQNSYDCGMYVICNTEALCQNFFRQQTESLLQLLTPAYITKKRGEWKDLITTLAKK
The test is described as follows: anti-Flag immunoprecipitation from U2OS cell extracts, western blot with anti-NEDP1. Here is the method: FIGS. 4A-4B: FIG. 4A Extracts from empty pcDNA3 vector (vect.) or stably expressing Nanobody 2/Nanobody 9-Flag (AbR2DP12/AbR2DP46) U2OS cells were used for anti-Flag immunoprecipitations. Total cell extracts (input) and eluates were used for western blot analysis with the indicated antibodies. FIG. 4B U2OS cells described above were lysed in 2×SDS buffer and extracts were analysed by western blotting with the indicated antibodies.
U2OS cells either with empty pcDNA3 vector or stably expressing Nb2/Nb9-Flag constructs were lysed in 50 mM Tris-HCl, pH 7.4, 100 mM KCl, 1% NP-40, 2 mM EDTA, protease inhibitors (complete EDTA-free, Roche) for 15 min on ice. After centrifugation at 13000 rpm for 15 min at 4° C. extracts were used for immunoprecipitations overnight at 4° C. with 20 μl of pre-washed Flag beads. Next day beads were washed 3× with 500 μl of lysis buffer, resuspended in 50 μl of 2×SDS Laemmli buffer and boiled for 5 min. Eluates were analysed by western blotting.
In general terms: In western blotting, separated proteins are transferred to a membrane and probed.

In test [3] the target is T1, recombinant human NEDP1 protein. The test is described as follows: SPR. Here is the method:
as §1, §2

B1: AbR2DP47, purified His6-tagged nanobody (VHH)
VHH: QVQLQESGGGLVEPGGSLRLSCAASGSISSINVMAWYRQAPGKQRESVAAISSFGITTYSETVKGRFTASRDNAKNTMYLQMNNLKPEDTAVYYCKGPNTDWGQGTQVTVSS
notes: Llama VHH, recloned into pHEN6 and purified from E. coli periplasm as a His6-tagged protein; also called Nb10; Nanobody 10; not shown: His6 tag from vector pHEN6
On to B1, for which the binding result in test [1] is recorded as “binds”.

B2: AbR2DP12, purified His6-tagged nanobody (VHH)
VHH: QVQLQESGGGLVQAGGSLRLSCAASGSTSSFNVMAWYHQAPGKQRESVASITSGGITVYRDSVKGRFAISSDNAKNTVFLQMNSLKPEDTGVYYCGGVVDGRVYRGQGTQVTVSS
notes: Llama VHH, recloned into pHEN6 and purified from E. coli periplasm as a His6-tagged protein; also called Nb2; Nanobody 2; not shown: His6 tag from vector pHEN6
In the case of B2, in test [1], the binding result is “binds”.

B3: Nb2-Flag (AbR2DP12 with Flag tag, stably expressed in U2OS cells) (VHH)
VHH: QVQLQESGGGLVQAGGSLRLSCAASGSTSSFNVMAWYHQAPGKQRESVASITSGGITVYRDSVKGRFAISSDNAKNTVFLQMNSLKPEDTGVYYCGGVVDGRVYRGQGTQVTVSS
notes: Expressed inside U2OS cells from a pcDNA3 construct; also called Nanobody 2-Flag; AbR2DP12-Flag; not shown: Flag tag
Take B3: in test [2], the binding result was “binds”.

B4: AbR2DP35, purified His6-tagged nanobody (VHH)
VHH: QVQLQESGGGLVQPGGSLTLSCAASGVMFSTGVMGWYRQAPGKQREAVAAITSGGLTTYKDSVKGRFAISRDNTKSTGYLQMNRLRPEDTAVYYCNVRGYWGQGTQVTVSS
notes: Llama VHH, purified as a His6-tagged protein; also called Nb7; Nanobody 7; not shown: His6 tag from vector pHEN6
B4: in test [3], the binding result is “binds”.

B5: AbR2DP46, purified His6-tagged nanobody (VHH)
VHH: QVQLQESGGGLVQAGGSLRLSCAASGSPFSIGTMAWYRQAPGNQRASVAAITRGGATTYANSVKGRFTVSRDNAKNTVYLQMNSLKPEDTAAYYCSVWAGDRAYWGQGTQVTVSS
notes: Llama VHH, recloned into pHEN6 and purified from E. coli periplasm as a His6-tagged protein; also called Nb9; Nanobody 9; not shown: His6 tag from vector pHEN6
Turning to B5, the binding result in test [1] was “binds”.

B6: Nb9-Flag (AbR2DP46 with Flag tag, stably expressed in U2OS cells) (VHH)
VHH: QVQLQESGGGLVQAGGSLRLSCAASGSPFSIGTMAWYRQAPGNQRASVAAITRGGATTYANSVKGRFTVSRDNAKNTVYLQMNSLKPEDTAAYYCSVWAGDRAYWGQGTQVTVSS
notes: Expressed inside U2OS cells from a pcDNA3 construct; also called Nanobody 9-Flag; AbR2DP46-Flag; not shown: Flag tag
In the case of B6, in test [2], the binding result is “binds”.
